The text below walks through data of article PMC2112199 (The Journal of Cell Biology, 1982).

What is called Kd is the constant that tells how readily two partners part at equilibrium. Read a low Kd as higher affinity.

Values joined by “and” are separate entries in the source; they are usually repeats but may differ in a detail not shown here. Identical values can stand only once. Like-named read-outs stand apart in the source and are kept apart here.

Test [1] addresses Rabbit skeletal muscle actin (rabbit, UniProt P68135 1-377). The experiment in a line: inhibition of actin polymerization by profilin.
The target in test [2] is Acanthamoeba actin (Acanthamoeba). The experiment in a line: critical concentration of actin polymerization at steady state.
For test [3] the target is unchanged.

B1: Acanthamoeba profilin (natural protein)
chain: SWQTYVDTNLVGTGAVTQAAILGLDGNTWATSAGFAVTPAQGQTLASAFNNADPIRASGFDLAGVHYVTLRADDRSIYGKKGSAGVITVKTSKSILVGVYNEKIQPGTAANVVEKLADYLIGQGF
Consider B1, for which the Kd is greater than 30 µM in test [1]; 0.9 µM and 1.4 µM and 1.3 µM with Acanthamoeba actin [2]; 4 µM and 3.1 µM and 3.7 µM with Acanthamoeba actin [3].
